Source: paper PMC6905088 (Biochemical pharmacology, 2019)
“And” between values parts separate entries of the source, which are not always exact repeats. Equal entries are not always repeated. Where two headings read alike, the source gives them in different places.

Legend:
[1] = substrate: CN(C/C=C/C#CC(C)(C)C)Cc1cccc2ccccc12; assay: cells, lysate or membranes named; details: substrate terbinafine, pH 7.4, 37.0 °C
[2] = substrate: CN(C/C=C/C#CC(C)(C)C)Cc1cccc2ccccc12
[3] = other: CYP2C9, Pathway 2 Step 2.1
[4] = other: CYP1A2, Pathway 1 Step 1
[5] = other: CYP1A2, Pathway 2 Step 2.1
[6] = other: CYP2C8, Pathway 2 Step 2.1

B1: CYP2C9 (Homo sapiens) (protein)
chain: MDSLVVLVLCLSCLLLLSLWRQSSGRGKLPPGPTPLPVIGNILQIGIKDISKSLTNLSKVYGPVFTLYFGLKPIVVLHGYEAVKEALIDLGEEFSGRGIFPLAERANRGFGIVFSNGKKWKEIRRFSLMTLRNFGMGKRSIEDRVQEEARCLVEELRKTKASPCDPTFILGCAPCNVICSIIFHKRFDYKDQQFLNLMEKLNENIKILSSPWIQICNNFSPIIDYFPGTHNKLLKNVAFMKSYILEKVKEHQESMDMNNPQDFIDCFLMKMEKEKHNQPSEFTIESLENTAVDLFGAGTETTSTTLRYALLLLLKHPEVTAKVQEEIERVIGRNRSPCMQDRSHMPYTDAVVHEVQRYIDLLPTSLPHAVTCDIKFRNYLIPKGTTILISLTSVLHDNKEFPNPEMFDPHHFLDEGGNFKKSKYFMPFSAGKRICVGEALAGMELFLFLTSILQNFNLKSLVDPKNLDTTPVVNGFASVPPFYQLCFIPV
kcat ([1]; other: CYP2C9, Pathway 1 Step 1): 800 ± 170 pmol/min/nmol protein
Km [1, 3]: 20 ± 5.1 µM
kcat [1, 3]: 400 ± 19 pmol/min/nmol protein
K0.5 ([1]; other: CYP2C9, Hill equation): 72 ± 92 µM

B2: CYP2D6 (Homo sapiens) (protein)
chain: MGLEALVPLAVIVAIFLLLVDLMHRRQRWAARYPPGPLPLPGLGNLLHVDFQNTPYCFDQLRRRFGDVFSLQLAWTPVVVLNGLAAVREALVTHGEDTADRPPVPITQILGFGPRSQGVFLARYGPAWREQRRFSVSTLRNLGLGKKSLEQWVTEEAACLCAAFANHSGRPFRPNGLLDKAVSNVIASLTCGRRFEYDDPRFLRLLDLAQEGLKEESGFLREVLNAVPVLLHIPALAGKVLRFQKAFLTQLDELLTEHRMTWDPAQPPRDLTEAFLAEMEKAKGNPESSFNDENLRIVVADLFSAGMVTTSTTLAWGLLLMILHPDVQRRVQQEIDDVIGQVRRPEMGDQAHMPYTTAVIHEVQRFGDIVPLGVTHMTSRDIEVQGFRIPKGTTLITNLSSVLKDEAVWEKPFRFHPEHFLDAQGHFVKPEAFLPFSAGRRACLGEPLARMELFLFFTSLLQHFSFSVPTGQPRPSHHGVFAFLVSPSPYELCAVPR
K0.5 [2]: 16 ± 3.2 µM and 25 ± 4.1 µM

B3: CYP1A2 (Homo sapiens) (protein)
chain: MALSQSVPFSATELLLASAIFCLVFWVLKGLRPRVPKGLKSPPEPWGWPLLGHVLTLGKNPHLALSRMSQRYGDVLQIRIGSTPVLVLSRLDTIRQALVRQGDDFKGRPDLYTSTLITDGQSLTFSTDSGPVWAARRRLAQNALNTFSIASDPASSSSCYLEEHVSKEAKALISRLQELMAGPGHFDPYNQVVVSVANVIGAMCFGQHFPESSDEMLSLVKNTHEFVETASSGNPLDFFPILRYLPNPALQRFKAFNQRFLWFLQKTVQEHYQDFDKNSVRDITGALFKHSKKGPRASGNLIPQEKIVNLVNDIFGAGFDTVTTAISWSLMYLVTKPEIQRKIQKELDTVIGRERRPRLSDRPQLPYLEAFILETFRHSSFLPFTIPHSTTRDTTLNGFYIPKKCCVFVNQWQVNHDPELWEDPSEFRPERFLTADGTAINKPLSEKMMLFGMGKRRCIGEVLAKWEIFLFLAILLQQLEFSVPPGVKVDLTPIYGLTMKHARCEHVQARLRFSIN
Km [1, 4]: 75 ± 42 µM and 31 ± 17 µM
kcat [1, 4]: 100 ± 12 pmol/min/nmol protein
Km [1, 5]: 120 ± 23 µM
kcat [1, 5]: 530 ± 38 pmol/min/nmol protein
K0.5 ([1]; other: CYP1A2, Hill equation): 130 ± 87 µM
K0.5 ([1]; other: CYP1A2): 45 ± 5.7 µM

B4: CYP2C8 (Homo sapiens) (protein)
chain: MEPFVVLVLCLSFMLLFSLWRQSCRRRKLPPGPTPLPIIGNMLQIDVKDICKSFTNFSKVYGPVFTVYFGMNPIVVFHGYEAVKEALIDNGEEFSGRGNSPISQRITKGLGIISSNGKRWKEIRRFSLTTLRNFGMGKRSIEDRVQEEAHCLVEELRKTKASPCDPTFILGCAPCNVICSVVFQKRFDYKDQNFLTLMKRFNENFRILNSPWIQVCNNFPLLIDCFPGTHNKVLKNVALTRSYIREKVKEHQASLDVNNPRDFIDCFLIKMEQEKDNQKSEFNIENLVGTVADLFVAGTETTSTTLRYGLLLLLKHPEVTAKVQEEIDHVIGRHRSPCMQDRSHMPYTDAVVHEIQRYSDLVPTGVPHAVTTDTKFRNYLIPKGTTIMALLTSVLHDDKEFPNPNIFDPGHFLDKNGNFKKSDYFMPFSAGKRICAGEGLARMELFLFLTTILQNFNLKSVDDLKNLNTTAVTKGIVSLPPSYQICFIPV
Km [1, 6]: 72 ± 12 µM
kcat [1, 6]: 260 ± 12 pmol/min/nmol protein
